One molecule from PMC11582648 (Nature Communications, 2024) can be followed below.

This assay concerns the target T1, GST-CK1δ (human, UniProt P48730-2 1-409).
T1 sequence: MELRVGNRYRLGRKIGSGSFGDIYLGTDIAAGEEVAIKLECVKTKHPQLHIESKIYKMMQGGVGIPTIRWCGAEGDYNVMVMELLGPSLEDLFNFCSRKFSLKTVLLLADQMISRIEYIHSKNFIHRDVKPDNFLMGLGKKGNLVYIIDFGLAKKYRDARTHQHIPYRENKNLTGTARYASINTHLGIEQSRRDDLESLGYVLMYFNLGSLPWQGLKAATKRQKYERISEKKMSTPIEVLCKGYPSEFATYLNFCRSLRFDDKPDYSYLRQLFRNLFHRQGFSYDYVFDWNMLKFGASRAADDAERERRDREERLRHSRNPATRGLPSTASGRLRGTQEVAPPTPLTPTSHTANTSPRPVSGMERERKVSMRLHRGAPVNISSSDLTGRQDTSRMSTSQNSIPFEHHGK
The experiment in a line: pull-down.

B1: His-USP46 (enzyme)
chain: MTVRNIASICNMGTNASALEKDIGPEQFPINEHYFGLVNFGNTCYCNSVLQALYFCRPFRENVLAYKAQQKKKENLLTCLADLFHSIATQKKKVGVIPPKKFISRLRKENDLFDNYMQQDAHEFLNYLLNTIADILQEEKKQEKQNGKLKNGNMNEPAENNKPELTWVHEIFQGTLTNETRCLNCETVSSKDEDFLDLSVDVEQNTSITHCLRDFSNTETLCSEQKYYCETCCSKQEAQKRMRVKKLPMILALHLKRFKYMEQLHRYTKLSYRVVFPLELRLFNTSSDAVNLDRMYDLVAVVVHCGSGPNRGHYITIVKSHGFWLLFDDDIVEKIDAQAIEEFYGLTSDISKNSESGYILFYQSRE
For B1, the binding result is recorded as “binds”.
